The text below walks through data of patent publication US12551596B2, “Delivery systems for administration of cationic biological actives” (Allvivo Vascular, Inc., priority 2017, dated 2026).

This data set in a line: Stability of ASP-1 in PU 077 catheter coating after EO sterilization and storage, HPLC. Format: physicochemical. The conditions noted are these: coated on catheters, EO sterilized, stored at room temperature up to 9 months. Here is the method:
Composition (lot K-132, Table 9.1) comprising ASP-1 peptide (SEQ ID NO: 17 in Table A), custom synthesized hydrophilic medical grade polyurethane (PU 077), polyoxyl 15 hydroxystearate (PEG-15-HS) and citric acid monohydrate (CAxH2O) was prepared by dissolving components in MEK/ethanol solvent and dip coated on 7 Fr triple lumen catheters.
The obtained ASP-1 coated catheters were sterilized by ethylene oxide (EO) gas, vacuum dried and pouched in aluminum foil bags supplied with a desiccant pouch. Peptide purity and recovery from coatings before EO sterilization and after EO sterilization and storage was measured by HPLC after full extraction from catheters.

For “RRWVRRVRRWVRRVVRVVRRWVRR (Antimicrobial peptide) [ASP-1]”, the “stability of ASP-1 peptide in catheter coating” value is reported as “good stability”.
